# B1: lactoferrin: bovine apolactoferrin manufactured by Life Extension as a solid in a capsule, dissolved in 18.5% alcohol/water (protein, UniProt P24627 20-708, looked up)
# Lactotransferrin: APRKNVRWCTISQPEWFKCRRWQWRMKKLGAPSITCVRRAFALECIRAIAEKKADAVTLDGGMVFEAGRDPYKLRPVAAEIYGTKESPQTHYYAVAVVKKGSNFQLDQLQGRKSCHTGLGRSAGWIIPMGILRPYLSWTESLEPLQGAVAKFFSASCVPCIDRQAYPNLCQLCKGEGENQCACSSREPYFGYSGAFKCLQDGAGDVAFVKETTVFENLPEKADRDQYELLCLNNSRAPVDAFKECHLAQVPSHAVVARSVDGKEDLIWKLLSKAQEKFGKNKSRSFQLFGSPPGQRDLLFKDSALGFLRIPSKVDSALYLGSRYLTTLKNLRETAEEVKARYTRVVWCAVGPEEQKKCQQWSQQSGQNVTCATASTTDDCIVLVLKGEADALNLDGGYIYTAGKCGLVPVLAENRKSSKHSSLDCVLRPTEGYLAVAVVKKANEGLTWNSLKDKKSCHTAVDRTAGWNIPMGLIVNQTGSCAFDEFFSQSCAPGADPKSRLCALCAGDDQGLDKCVPNSKEKYYGYTGAFRCLAEDVGDVAFVKNDTVWENTNGESTADWAKNLNREDFRLLCLDGTRKPVTEAQSCHLAVAPNHAVVSRSDRAAHVKQVLLHQQALFGKNGKNCPDKFCLFKSETKNLLFNDNTECLAKLGGRPTYEEYLGTEYVTAIANLKKCSTSPLLEACAFLTR
# modifications: apo form
# notes: bovine apolactoferrin manufactured by Life Extension as a solid in a capsule, dissolved in 18.5% alcohol/water
# Conditions: human, in vivo
# Procedure: The patient dissolved varying amounts of grape seed powder containing 20% (w/w) of oligomeric proanthocyanidin (OPC) in 37% alcohol/water to produce solutions having OPC concentrations of 1,000 mg/ml, 2,000 mg/ml and 4,000 mg/ml. Each of the solutions were filtered the resulting filtrate then diluted 1:1 with water to produce solutions having final concentrations of 500 mg OPC/l, 1,000 mg OPC/l and 2,000 mg OPC/l. They loaded 3 ml of the 500 mg OPC/l solution into an inhaler and self-administered the solution to their lungs two to three times/day for a few days. […] They performed the same experiment with each of the higher concentration OPC solutions. […] The patient then prepared a solution of bovine apolactoferrin. The lactoferrin was manufactured by Life Extension as a solid in a capsule. The patient broke open capsules and dissolved the lactoferrin therein in 18.5% alcohol/water to final concentrations ranging from 1 g lactoferrin/l to 4.5 g lactoferrin/l. […] The patient reported a relief from all signs of their infection, including coughing, for 4 to 5 hours following administration of the lactoferrin. After that time, their condition began to return to the pre-treatment state. […] It is theorized that this may have been due to a build-up in the patient's lungs of contaminants present in the OPC/lactoferrin preparation that could not be removed by filtration prior to administration. […]
molecule,measurement,value
B1,side effects on inhalation,no immediate deleterious side effects
